Test results as given in patent EP2500357A2 (Abbott Laboratories, dated 2012).

T1: recombinant human IL-1α (human, UniProt P01583 113-271)
T1 sequence (looked up): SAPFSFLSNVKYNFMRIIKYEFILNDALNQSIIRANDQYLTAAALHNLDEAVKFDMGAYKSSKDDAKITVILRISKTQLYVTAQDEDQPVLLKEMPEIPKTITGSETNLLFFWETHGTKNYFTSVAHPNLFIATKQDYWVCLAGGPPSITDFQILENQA


Key:
recombinant human IL-1α [1] = target: T1, recombinant human IL-1α; test: cell-based or functional assay
recombinant human IL-1β [2] = target: T2, recombinant human IL-1β (human, UniProt P01584 117-269); test: cell-based or functional assay
recombinant human IL-1α [3] = target: T1, recombinant human IL-1α; test: cell-based or functional assay; remark: listed apart in the source
recombinant human IL-1β [4] = target: T2, recombinant human IL-1β; test: cell-based or functional assay; remark: listed apart in the source
recombinant human IL-1α [5] = target: T1, recombinant human IL-1α; test: SPR (Biacore), hIL-1α as 1st antigen
recombinant human IL-1α [6] = target: T1, recombinant human IL-1α; test: SPR (Biacore), hIL-1α as 2nd antigen
recombinant human IL-1β [7] = target: T2, recombinant human IL-1β; test: SPR (Biacore), hIL-1β as 1st antigen
recombinant human IL-1β [8] = target: T2, recombinant human IL-1β; test: SPR (Biacore), hIL-1β as 2nd antigen
human IL-18 [9] = target: T3, human IL-18 (human, UniProt Q14116 37-193); test: cell-based or functional assay
human IL-18 [10] = target: T3, human IL-18; test: cell-based or functional assay; remark: listed apart in the source

Binder | dual-inhibition activity, IL-8 synthesis by MRC-5 cells with both IL-1α and IL-1β present (recombinant human IL-1α [1]) [nM] | neutralizing activity against hIL-1α relative to the chimeric Abs (recombinant human IL-1α [1]) [fold] | dual-inhibition activity, IL-8 synthesis by MRC-5 cells with both IL-1α and IL-1β present (recombinant human IL-1β [2]) [nM] | Potency (IC50), MRC-5 bioassay (recombinant human IL-1α [3]) [nM] | Potency (IC50), MRC-5 bioassay (recombinant human IL-1β [4]) [nM] | Stoichiometry hIL-1α:DVD-Ig (recombinant human IL-1α [5]) | Stoichiometry hIL-1α:DVD-Ig (recombinant human IL-1α [6]) | Stoichiometry hIL-1β:DVD-Ig (recombinant human IL-1β [7]) | Stoichiometry hIL-1β:DVD-Ig (recombinant human IL-1β [8]) | IC50, KG-1 bioassay (IFN-γ production) (human IL-18 [9]) [nM] | Potency (IC50), KG-1 bioassay (IL-18) (human IL-18 [10]) [nM]
hIL-1a/bDVD1-Ig (bispecific antibody, human IgG1, kappa, No linker between the variable domains; also called hIL-1α/βDVD1-Ig) heavy: not shown light: NIVLTQSPASLAVSLGQRATISCRASESVDSYGNSYMHWYQQKPGQPPKLLIYLASNLESGVPARFSGSGSRTDFTLTIDPVEADDAATYYCQQNNEDPFTFGSGTKLEIKRNIQMTQTTSSLSASLGDRVTISCRASQDISNCLNWYQQKPDGTVKLLIYYTSRLHSGVPSRFSGSGSGTDYSLTISNLEQEDIATYFCQQGKTLPYAFGGGTKLEINRTVAAPSVFIFPPSDEQLKSGTASVVCLLNNFYPREAKVQWKVDNALQSGNSQESVTEQDSKDSTYSLSSTLTLSKADYEKHKVYACEVTHQGLSSPVTKSFNRGEC | 2.2 | 3 | 2.2 | 2.3 | 3.1 | 2.3 | 1.1 | 1.5 | 1 |  | 
ABT325 (anti-human IL-18 mAb) (antibody, V domains shown) VH: EVQLVQSGTEVKKPGESLKISCKGSGYTVTSYWIGWVRQMPGKGLEWMGFIYPGDSETRYSPTFQGQVTISADKSFNTAFLQWSSLKASDTAMYYCARVGSGWYPYTFDIWGQGTMVTVSS VL: not shown |  |  |  |  |  |  |  |  |  | 0.3 | 0.0687
